One molecule from patent US20180128830A1, “DETECTION OF HUMAN CYTOMEGALOVIRUS IN BREAST CANCER” (priority 2015, published 2018) can be followed below.

For assay [1], the target named is T1, IL-10R (Homo sapiens, UniProt Q13651).
T1 construct: uninfected tumor cells express the IL-10R complex; endogenous in cells; host or cells: MDA-MB-231 human breast cancer cells
T1 sequence (Q13651 22-578): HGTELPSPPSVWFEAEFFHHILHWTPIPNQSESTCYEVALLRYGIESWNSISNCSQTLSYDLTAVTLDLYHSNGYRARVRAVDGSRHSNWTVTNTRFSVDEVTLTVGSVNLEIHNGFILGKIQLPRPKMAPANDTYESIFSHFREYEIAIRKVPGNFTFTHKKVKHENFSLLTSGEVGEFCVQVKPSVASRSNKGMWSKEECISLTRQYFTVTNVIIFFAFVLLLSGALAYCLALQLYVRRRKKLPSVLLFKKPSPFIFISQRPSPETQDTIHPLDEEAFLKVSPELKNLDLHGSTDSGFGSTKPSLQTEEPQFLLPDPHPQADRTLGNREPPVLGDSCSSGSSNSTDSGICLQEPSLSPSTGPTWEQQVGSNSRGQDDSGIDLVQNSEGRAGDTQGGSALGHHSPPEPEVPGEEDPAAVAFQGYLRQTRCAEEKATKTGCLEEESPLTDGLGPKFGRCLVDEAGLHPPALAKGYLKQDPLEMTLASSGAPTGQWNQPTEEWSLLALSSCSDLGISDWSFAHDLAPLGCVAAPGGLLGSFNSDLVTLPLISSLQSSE
T1 sequence (Q08334 20-325 partner): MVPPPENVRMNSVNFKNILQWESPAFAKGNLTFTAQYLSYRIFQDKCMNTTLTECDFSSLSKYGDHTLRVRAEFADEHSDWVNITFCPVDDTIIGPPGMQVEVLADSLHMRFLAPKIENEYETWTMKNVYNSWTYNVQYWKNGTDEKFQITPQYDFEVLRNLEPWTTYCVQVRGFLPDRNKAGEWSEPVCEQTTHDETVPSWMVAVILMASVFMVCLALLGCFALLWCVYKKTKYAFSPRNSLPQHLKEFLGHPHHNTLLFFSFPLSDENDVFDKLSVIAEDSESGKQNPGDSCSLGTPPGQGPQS
Nature of the assay: IL-10R immunofluorescence microscopy. The settings on record: MDA-MB-231 cells, 100 ng/ml, 15 min. Type of assay: cell-based. On the procedure: MDA-MB-231 cells were seeded into 6-well dishes containing FBS-coated glass coverslips at a density of 2×10^5 cells per well and then incubated for 48 hrs at 37° C. Cell monolayers were washed with PBS, fixed with 4% paraformaldehyde, then permeabilized with 0.2% (w/v) Triton X-100 followed by treatment with ice cold 50% methanol-50% acetone for 30 min. Cells were then blocked with PBS+10% FBS for 1 hr at 37° C. and stained with anti-IL-10Rα antibody (Santa Cruz Biotechnology) at a 1:100 dilution for 1 hr at 37° C. Following three PBS washes, the coverslips were incubated with TRITC-conjugated secondary antibody for 1 hr, washed again, and then mounted on a glass slide using Prolong Gold anti-fade reagent with DAPI (Life Technologies, Grand Island, N.Y.). HFF cells were also grown on coverslips as described, mock- or virus-infected, and stained with anti-IE1 (EMD Millipore) followed by FITC-conjugated secondary antibody. Images were acquired using a Zeiss LSM700 laser scanning confocal microscope using Zen Black software (Carl Zeiss, Inc., Oberkochen, Germany).

For assay [2], the system named is Stat3. Nature of the assay: Cell-based Stat3 ELISA. Details: species or system human. The settings on record: varying doses, 15 min. On the procedure: For the Stat3 ELISA, cells were seeded into 96-well dishes at a density of 1×10^4 cell per well, treated with varying doses of cmvIL-10 in triplicate for 15 min, and then lysed in the plate and assayed for total or pStat3 using the Cell-based Stat3 ELISA kit according to manufacturer's instructions (R&D Systems). The detection of hIL-10 in supernatants from MDA-MB-231 cell cultures was performed using the IL-10 ELISA DuoSet kit as directed (R&D Systems).
In general terms: In an ELISA, binding on a coated surface is turned into a signal by an enzyme label.

The subject of assay [3] is MDA-MB-231 cells. Nature of the assay: DNA synthesis, BrdU Cell Proliferation ELISA. Type of assay: cell-based, human. The settings on record: 100 ng/ml, vs control. On the procedure:
(§1) Cells were seeded into 96-well dishes at a density of 1×10^4 cell per well in complete medium with varying doses of cmvIL-10, and then cell viability measured at the indicated time points using the Cell Titer Glo Assay kit according to manufacturer's instructions (Promega). DNA synthesis was measured in cells prepared in the same way using the BrdU Cell Proliferation ELISA Kit (Roche, Basel, Switzerland). For experiments using inhibitors, cells were cultivated in 96-well dishes as above with a final concentration of 10 μM inhibitor and BrdU incorporation evaluated after 72 hrs. For cell counts, cells were seeded into 6-well plates at a density of 2×10^5 cells per well, harvested via trypsinization, and counted using a hemacytometer at the indicated time points. The TACS Annexin V-FITC Detection Kit (Trevigen, Gaithersburg, Md.) was used to stain cells harvested from 70% confluent T75 flasks that had been treated with 100 μM etoposide for 48 hrs in the presence or absence of 100 ng/ml cmvIL-10. Cells were then analyzed via flow cytometry to detect fluorescence. For viability assays, Cell Titer Glo reagent was utilized to quantify cells that had been seeded into 96-well dishes at a density of 1×10^4 cell per well in complete medium with varying doses of etoposide in the presence or absence of 100 ng/ml cmvIL-10 as indicated

Assay [4] concerns MDA-MB-231 cells. Nature of the assay: Cell viability under etoposide, Cell Titer Glo. Type of assay: cell-based, human. On the procedure: as §1
On the technique in general: Cellular ATP, detected with luciferase, serves as a proxy for viable cell number.

For assay [5], the system named is MMP-3. Nature of the assay: MMP-3 western blotting and zymography. Type of assay: cell-based, human. The note with it: over time. On the procedure: Confluent T-75 flasks of MDA-MB-231 cells were treated with 10 ng/mL cmvIL-10 (R&D systems) for the indicated times, then scraped and harvested into cell lysis buffer (150 mM NaCl, 20 mM HEPES, 0.5% Triton-X-100, 1.0 mM NaOV4, 1.0 mM EDTA, 0.1% NaN3) containing 1× protease inhibitors (Calbiochem). Cell lysates were clarified via centrifugation, heated at 70° C. for 10 min in reducing buffer, and the proteins separated on a 4-12% Tris-Base SDS-PAGE gel (Life Technologies, Grand Island, N.Y.). After transfer to nitrocellulose, the membrane was incubated in blocking solution (5% milk+TBS) for 1 hr at room and then probed with primary antibody: 1:1000 dilution for MMP-3 or MTSS-1 antibodies (Santa Cruz), or MAPK antiserum (Cell Signaling Tech, Danvers, Mass.), in blocking solution overnight, oscillating on a platform rocker at 4.0° C. After three washes, the membranes were incubated with a 1:2000 dilution of appropriate AP-conjugated secondary antibody on a platform rocker at room temperature for 1 hr. Protein bands were detected using western blue stabilized AP substrate (Promega, Madison, Wis.). For zymography, cell lysates were denatured in SDS buffer under non-reducing conditions without heat, and run on a 4-16% Zymogram gel using Tris-Glycine SDS running buffer according to manufacturer's instructions. […]

B1: cmvIL-10 (protein)
chain: ATTTTIKNTKPQCRPEDYATRLQDLRVTFHRVKPTLQREDDYSVWLDGTVVKGCWGCSVMDWLLRRYLEIVFPAGDHVYPGLKTELHSMRSTLESIYKDMRQCPLLGCGDKSVISRLSQEAERKSDNGTRKGLSELDTLFSRLEEYLHSRK
Consider B1, for which the “IL-10R distribution after treatment” value in assay [1] was “distinct redistribution of IL-10R”. Moreover, the “amount of Stat3 phosphorylation (pStat3 to total Stat3)” value in assay [2] is on record as “increased in a dose-dependent manner”. The “rate of DNA synthesis (BrdU incorporation)” value in assay [3] was “significantly higher”. In addition, the “cell viability over time” value in assay [4] (10 μM etoposide, 100 ng/ml cmvIL-10) is “able to overcome etoposide-induced effects over time and proliferate robustly”. In addition, in assay [4] (varying doses of etoposide, 100 ng/ml cmvIL-10, 48 hours), the overall cell viability entry is “increased overall cell viability”. Also, in assay [5], the “amount of active MMP-3 enzyme (zymography, casein digestion)” value is “also increased” and the “total MMP-3 protein (western blot)” value is reported as “increase in total MMP-3 protein”.
